According to the supplement of paper PMC9876800:

System: peptide library, one residue held at a place counted from the S/T acceptor
Assay: relative phosphorylation of the sub-library (ratio to the mean residue at this position); human; higher = residue favoured
In short: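 Purified recombinant kinases (human or orthologue constructs) were incubated in 384-well plates with biotinylated degenerate peptide sub-libraries, each fixing one residue at one position around a central Ser/Thr. Peptides were at 50 μM, with 50 μM ATP spiked with γ-32P-ATP, for 90 min under kinase-specific conditions. Spots on streptavidin membranes were phosphorimaged and quantified by densitometry. Relative sub-library phosphorylation is a ratio to the mean residue at that position.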

GRK5, construct: Full length, sequence (P34947 whole entry, looked up): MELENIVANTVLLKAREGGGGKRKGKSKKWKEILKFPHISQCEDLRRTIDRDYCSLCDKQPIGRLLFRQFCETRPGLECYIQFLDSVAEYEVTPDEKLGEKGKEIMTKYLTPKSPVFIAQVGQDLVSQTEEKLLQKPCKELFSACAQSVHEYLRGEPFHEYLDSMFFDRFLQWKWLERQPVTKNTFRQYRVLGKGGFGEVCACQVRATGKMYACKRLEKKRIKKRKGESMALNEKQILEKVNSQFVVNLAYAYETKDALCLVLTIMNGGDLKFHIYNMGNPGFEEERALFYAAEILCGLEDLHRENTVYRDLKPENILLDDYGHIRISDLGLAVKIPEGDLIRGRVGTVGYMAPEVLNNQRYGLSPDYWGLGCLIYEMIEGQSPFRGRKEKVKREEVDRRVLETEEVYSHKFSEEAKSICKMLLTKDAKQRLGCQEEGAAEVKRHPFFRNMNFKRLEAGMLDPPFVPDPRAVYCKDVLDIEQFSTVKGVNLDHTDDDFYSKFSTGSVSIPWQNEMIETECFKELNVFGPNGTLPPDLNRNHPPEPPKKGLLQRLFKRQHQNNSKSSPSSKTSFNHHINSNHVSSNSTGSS
GRK7, construct: Full length, sequence (Q8WTQ7 whole entry, looked up): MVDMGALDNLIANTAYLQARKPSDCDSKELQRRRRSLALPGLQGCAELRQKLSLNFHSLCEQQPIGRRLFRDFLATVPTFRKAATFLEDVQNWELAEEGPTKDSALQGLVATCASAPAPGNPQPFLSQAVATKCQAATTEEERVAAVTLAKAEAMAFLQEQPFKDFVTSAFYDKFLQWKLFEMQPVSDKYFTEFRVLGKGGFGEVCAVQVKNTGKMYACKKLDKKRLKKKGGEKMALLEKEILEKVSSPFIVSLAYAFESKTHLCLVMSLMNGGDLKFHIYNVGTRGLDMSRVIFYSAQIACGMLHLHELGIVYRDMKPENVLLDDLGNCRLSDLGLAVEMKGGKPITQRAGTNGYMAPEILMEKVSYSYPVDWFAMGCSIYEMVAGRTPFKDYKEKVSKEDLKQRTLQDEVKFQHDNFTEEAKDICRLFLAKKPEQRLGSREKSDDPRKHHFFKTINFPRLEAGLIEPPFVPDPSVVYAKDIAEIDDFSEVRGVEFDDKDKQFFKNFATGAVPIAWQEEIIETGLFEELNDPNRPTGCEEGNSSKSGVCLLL
GRK2, construct: Full length, sequence (P25098 whole entry, looked up): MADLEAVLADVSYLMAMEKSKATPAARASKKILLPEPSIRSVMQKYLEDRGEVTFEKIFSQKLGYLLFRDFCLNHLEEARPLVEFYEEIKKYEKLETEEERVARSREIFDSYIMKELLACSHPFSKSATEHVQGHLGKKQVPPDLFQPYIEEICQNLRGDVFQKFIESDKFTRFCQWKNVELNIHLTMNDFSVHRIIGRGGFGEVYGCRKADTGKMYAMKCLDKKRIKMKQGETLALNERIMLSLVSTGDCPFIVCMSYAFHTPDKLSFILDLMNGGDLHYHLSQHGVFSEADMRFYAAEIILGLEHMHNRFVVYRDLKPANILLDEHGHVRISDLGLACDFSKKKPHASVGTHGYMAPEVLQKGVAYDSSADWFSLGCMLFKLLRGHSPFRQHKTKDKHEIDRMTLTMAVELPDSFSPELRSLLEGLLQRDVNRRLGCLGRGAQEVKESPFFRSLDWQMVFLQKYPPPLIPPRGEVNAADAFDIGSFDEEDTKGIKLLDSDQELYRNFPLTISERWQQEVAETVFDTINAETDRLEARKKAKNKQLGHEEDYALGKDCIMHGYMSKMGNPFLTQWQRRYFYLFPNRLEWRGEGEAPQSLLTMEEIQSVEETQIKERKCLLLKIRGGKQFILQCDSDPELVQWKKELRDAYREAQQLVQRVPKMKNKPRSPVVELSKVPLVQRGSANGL
EIF2AK1, construct: Full length, sequence (Q9BQI3 whole entry, looked up): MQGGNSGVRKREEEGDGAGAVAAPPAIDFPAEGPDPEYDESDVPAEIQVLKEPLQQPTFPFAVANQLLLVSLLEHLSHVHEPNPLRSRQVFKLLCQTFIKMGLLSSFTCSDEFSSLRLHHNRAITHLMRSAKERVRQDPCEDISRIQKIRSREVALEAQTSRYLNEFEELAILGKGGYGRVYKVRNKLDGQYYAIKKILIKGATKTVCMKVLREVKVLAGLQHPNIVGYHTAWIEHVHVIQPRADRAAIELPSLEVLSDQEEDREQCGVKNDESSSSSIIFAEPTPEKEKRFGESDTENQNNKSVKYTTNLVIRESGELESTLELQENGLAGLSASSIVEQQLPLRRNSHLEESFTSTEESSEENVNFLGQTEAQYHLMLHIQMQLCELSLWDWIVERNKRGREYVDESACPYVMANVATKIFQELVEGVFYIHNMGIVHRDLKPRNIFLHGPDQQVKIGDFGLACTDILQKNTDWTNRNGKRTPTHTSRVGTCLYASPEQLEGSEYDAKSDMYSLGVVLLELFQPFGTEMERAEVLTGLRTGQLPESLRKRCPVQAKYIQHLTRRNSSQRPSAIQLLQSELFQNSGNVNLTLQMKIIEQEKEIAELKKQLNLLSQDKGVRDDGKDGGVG

EIF2AK1, construct: Full length (from UniProt Q9BQI3)
relative phosphorylation
Conditions	at +1	at +2	at +3	at +4	at -1	at -2	at -3	at -4	at -5
A fixed	0.697	0.999	0.699	0.762	0.698	0.907	1.04	0.971	0.979
D fixed	0.365	0.489	0.403	0.602	1.26	3.35	1.11	0.87	0.672
E fixed	0.358	0.382	0.388	0.565	1.01	2.47	0.857	0.724	0.619
F fixed	1.5	0.874	1.3	0.975	1.09	0.752	0.955	1.15	1.31
G fixed	1.21	0.923	1.09	0.945	0.469	0.846	0.936	0.89	0.897
H fixed	0.788	1.24	1.12	1.01	1.56	1.1	1.04	1.03	0.962
I fixed	1.24	0.954	0.788	0.809	1.19	0.606	1.09	1.1	1.29
K fixed	0.975	1.74	1.59	1.49	0.796	0.648	0.864	0.998	1
L fixed	1.08	0.747	0.904	0.936	1.15	0.56	1.07	1.06	1.08
M fixed	1.77	0.895	0.938	0.893	1.16	0.726	1.29	1.07	1.04
N fixed	0.991	1.12	0.808	0.964	1.14	0.783	0.904	0.826	0.728
P fixed	0.293	0.692	0.917	0.893	0.374	0.581	0.695	0.73	0.79
Q fixed	1.02	0.889	0.77	0.923	0.761	0.809	0.842	0.751	0.696
R fixed	1.79	1.99	2.1	1.9	1.07	0.73	0.958	1.03	1.16
V fixed	0.705	0.903	0.733	0.612	1.07	0.58	0.731	0.93	1.06
W fixed	1.02	0.918	1.26	1.57	0.731	0.787	1.23	1.59	1.44
Y fixed	1.2	1.25	1.19	1.15	1.46	0.764	1.38	1.28	1.27
pThr fixed	0.374	0.484	0.489	0.601	0.504	0.816	0.761	0.647	0.631
pTyr fixed	0.536	0.481	0.569	0.607	2.17	0.943	0.981	0.732	0.792

GRK2, construct: Full length (from UniProt P25098)
relative phosphorylation
Conditions	at +1	at +2	at +3	at +4	at -1	at -2	at -3	at -4	at -5
A fixed	0.812	1.17	0.782	0.874	0.876	0.822	1.03	0.901	0.914
D fixed	1.1	0.929	1.42	1.35	1.14	1.38	1.9	1.41	1.34
E fixed	1.47	0.883	1.37	1.25	1.34	3.01	2.28	1.54	1.13
F fixed	1.27	1.18	1.13	1.02	1.02	0.961	0.768	0.915	1.14
G fixed	0.766	0.755	0.817	0.928	0.726	0.718	0.766	0.897	0.839
H fixed	0.977	1.09	1.02	1.07	1.06	0.813	0.831	0.969	0.931
I fixed	1.03	1.18	0.892	0.892	0.862	0.724	0.732	0.847	0.898
K fixed	0.79	0.747	0.778	0.84	0.919	0.741	0.815	0.965	0.912
L fixed	0.883	0.886	1.01	0.935	0.928	0.832	0.742	0.899	0.88
M fixed	1.08	0.965	0.981	0.975	0.971	0.872	0.8	0.951	0.931
N fixed	0.879	0.969	0.996	1.07	1.04	0.926	0.924	0.99	0.95
P fixed	0.791	0.627	0.765	0.926	1.24	0.931	0.864	0.975	0.896
Q fixed	1.12	0.872	0.939	0.994	0.978	0.928	0.889	0.944	0.91
R fixed	0.838	0.768	0.791	0.843	0.979	0.974	1.43	0.998	1.04
V fixed	1.15	1.37	0.855	0.854	0.911	0.701	0.665	0.813	0.918
W fixed	1.04	1.3	1.25	1.18	0.876	0.832	0.789	1.06	1.19
Y fixed	1.01	1.31	1.22	0.998	1.12	0.843	0.787	0.932	1.18
pThr fixed	7.25	1.18	1.22	1.95	1.18	3.63	3.44	2.09	1.27
pTyr fixed	2.37	1.57	1.47	1.62	2.11	14.3	3.56	2.58	1.57

GRK5, construct: Full length (from UniProt P34947)
relative phosphorylation
Conditions	at +1	at +2	at +3	at +4	at -1	at -2	at -3	at -4	at -5
A fixed	0.822	1.35	0.828	0.969	0.728	0.802	0.852	1.03	1.06
D fixed	0.996	1.03	1.73	1.58	1.08	0.951	1.27	1.28	1.27
E fixed	2.19	0.721	1.96	1.25	0.863	1.01	1.19	1.15	1.05
F fixed	0.966	0.879	1.06	0.823	0.867	1.67	0.85	0.912	0.967
G fixed	0.768	1.06	0.998	0.976	0.694	0.932	1.02	1.08	1.16
H fixed	0.895	0.953	1.05	0.964	1.7	0.88	1.17	0.932	1.03
I fixed	1.01	1.15	0.61	0.762	0.732	0.735	0.828	0.863	0.892
K fixed	0.804	0.947	0.767	1.04	0.909	0.871	0.788	0.831	0.861
L fixed	0.81	0.735	0.717	0.662	0.874	0.765	0.707	0.891	0.82
M fixed	1.04	0.841	0.724	0.723	0.829	0.738	0.792	0.887	0.817
N fixed	0.888	0.905	0.721	0.911	1.19	0.889	1.04	0.984	0.94
P fixed	0.564	0.73	0.997	1.48	0.986	0.838	0.977	1.19	1.02
Q fixed	1.21	0.74	0.808	1.01	0.872	0.737	0.867	0.85	0.789
R fixed	1.13	1.12	0.927	0.899	1.12	1.05	1.04	0.87	0.806
V fixed	1.06	1.51	0.705	0.867	1.07	0.751	1.5	0.955	1.06
W fixed	0.944	1.3	1.35	1.1	0.933	2.08	1.13	1.23	1.32
Y fixed	0.898	1.03	1.06	0.982	1.55	1.3	0.969	1.08	1.13
pThr fixed	2.07	0.82	1.27	2.47	0.587	1.43	2.65	1.75	1.36
pTyr fixed	2.19	0.868	1.08	1.37	0.964	2.77	2.56	2.29	1.88

GRK7, construct: Full length (from UniProt Q8WTQ7)
relative phosphorylation
Conditions	at +1	at +2	at +3	at +4	at -1	at -2	at -3	at -4	at -5
A fixed	0.839	1.23	0.77	1.09	0.809	0.805	0.636	0.878	0.87
D fixed	0.701	0.93	1.85	1.55	1.57	3.03	2.12	2.48	2.26
E fixed	2.1	0.894	4.35	1.69	1.31	2.43	1.75	1.9	2.03
F fixed	1.46	0.843	0.513	0.682	0.512	0.624	0.474	0.516	0.621
G fixed	0.823	1.15	0.924	1.1	1.7	1.13	1.24	1.04	1.34
H fixed	0.927	1.21	0.851	1.08	1.1	0.573	0.673	0.699	0.883
I fixed	0.765	1.11	0.372	0.799	0.495	0.533	0.499	0.553	0.729
K fixed	0.58	1.02	1.54	1.05	1.47	0.693	1.44	0.738	0.838
L fixed	0.907	0.921	0.581	0.818	0.621	0.548	0.534	0.54	0.589
M fixed	0.899	0.689	0.401	0.658	0.53	0.572	0.493	0.58	0.678
N fixed	0.704	1.15	0.604	0.726	1.66	0.956	1.16	0.872	0.96
P fixed	0.826	1.2	0.999	1.43	1.26	1.71	1.89	2.61	1.16
Q fixed	1.08	0.88	0.896	0.926	1.22	0.687	0.794	0.728	0.73
R fixed	0.56	1.02	0.848	0.792	0.891	0.762	1.58	0.798	0.955
V fixed	0.654	1.07	0.415	0.894	0.629	0.589	0.544	0.754	0.751
W fixed	1.93	0.822	0.572	0.758	0.513	0.614	0.554	0.702	0.858
Y fixed	1.25	0.868	0.515	0.975	0.717	0.737	0.623	0.61	0.753
pThr fixed	2.52	1.05	1.66	3.54	1.01	3.79	2.48	2.06	1.5
pTyr fixed	7.56	1.29	1.41	1.9	2.83	3.58	2.14	1.9	1.67
